Source: paper PMC10397247

What was measured:
Core_IINN-es_KEKE = molecular target: T1, Core_IINN-es_KEKE; assay: two-hybrid library CCmax; conditions: mean of both orientations;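 further: natural log of median RNA to DNA barcode read ratio; higher means stronger binding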
T1 chain: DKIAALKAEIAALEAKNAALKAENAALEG

Core_IIIN-es_KEEE = molecular target: T2, Core_IIIN-es_KEEE; assay: two-hybrid library CCmax; conditions: mean of both orientations;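 further: natural log of median RNA to DNA barcode read ratio; higher means stronger binding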
T2 chain: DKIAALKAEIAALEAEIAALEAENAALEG

Core_NINI-es_KEEE = molecular target: T3, Core_NINI-es_KEEE; assay: two-hybrid library CCmax; conditions: mean of both orientations;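 further: natural log of median RNA to DNA barcode read ratio; higher means stronger binding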
T3 chain: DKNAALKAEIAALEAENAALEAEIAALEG

Core_NINI-es_KEKE = molecular target: T4, Core_NINI-es_KEKE; assay: two-hybrid library CCmax; conditions: mean of both orientations;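 further: natural log of median RNA to DNA barcode read ratio; higher means stronger binding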
T4 chain: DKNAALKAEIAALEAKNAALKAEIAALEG

Core_INNI-es_KKKE = molecular target: T5, Core_INNI-es_KKKE; assay: two-hybrid library CCmax; conditions: mean of both orientations
T5 chain: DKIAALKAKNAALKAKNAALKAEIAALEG

Core_IIII-es_KEEE = molecular target: T6, Core_IIII-es_KEEE; assay: two-hybrid library CCmax; conditions: mean of both orientations
T6 chain: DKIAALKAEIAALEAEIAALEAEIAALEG

O10-bS = molecular target: T7, O10-bS; assay: two-hybrid library CCNG1
T7 chain: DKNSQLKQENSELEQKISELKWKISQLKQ

O16-bS = molecular target: T8, O16-bS; assay: two-hybrid library CCNG1
T8 chain: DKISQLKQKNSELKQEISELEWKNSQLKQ

O13-bS = molecular target: T9, O13-bS; assay: two-hybrid library CCNG1
T9 chain: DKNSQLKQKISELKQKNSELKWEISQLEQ

O6-bS = molecular target: T10, O6-bS; assay: two-hybrid library CCNG1
T10 chain: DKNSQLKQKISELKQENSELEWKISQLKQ

O5-bS = molecular target: T11, O5-bS; assay: two-hybrid library CCNG1
T11 chain: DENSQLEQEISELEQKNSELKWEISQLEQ

O7-bS = molecular target: T12, O7-bS; assay: two-hybrid library CCNG1
T12 chain: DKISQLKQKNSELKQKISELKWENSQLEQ

O1-bS = molecular target: T13, O1-bS; assay: two-hybrid library CCNG1
T13 chain: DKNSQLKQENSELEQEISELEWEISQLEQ

O9-bS = molecular target: T14, O9-bS; assay: two-hybrid library CCNG1
T14 chain: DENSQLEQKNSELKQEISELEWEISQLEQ

O2-bS = molecular target: T15, O2-bS; assay: two-hybrid library CCNG1
T15 chain: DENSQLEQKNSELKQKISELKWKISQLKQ

O11-bS = molecular target: T16, O11-bS; assay: two-hybrid library CCNG1
T16 chain: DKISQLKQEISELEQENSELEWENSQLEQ

O15-bS = molecular target: T17, O15-bS; assay: two-hybrid library CCNG1
T17 chain: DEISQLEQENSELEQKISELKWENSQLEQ

O14-bS = molecular target: T18, O14-bS; assay: two-hybrid library CCNG1
T18 chain: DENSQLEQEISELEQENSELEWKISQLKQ

O3-bS = molecular target: T19, O3-bS; assay: two-hybrid library CCNG1
T19 chain: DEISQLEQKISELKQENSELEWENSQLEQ

O12-bS = molecular target: T20, O12-bS; assay: two-hybrid library CCNG1
T20 chain: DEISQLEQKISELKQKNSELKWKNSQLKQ

O8-bS = molecular target: T21, O8-bS; assay: two-hybrid library CCNG1
T21 chain: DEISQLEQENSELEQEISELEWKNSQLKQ

O4-bS = molecular target: T22, O4-bS; assay: two-hybrid library CCNG1
T22 chain: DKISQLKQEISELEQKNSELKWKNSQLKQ

Core_IIIN-es_KEKE = molecular target: T23, Core_IIIN-es_KEKE; assay: two-hybrid library CCmax
T23 chain: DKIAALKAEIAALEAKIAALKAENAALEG

DEIAALEAKIAALKAENAALEAKNAALKG [Core_IINN-es_EKEK]
interaction score (Core_IINN-es_KEKE): 2.27

DEIAALEAKIAALKAKIAALKAKNAALKG [Core_IIIN-es_EKKK]
interaction score (Core_IIIN-es_KEEE): 2.06

DENAALEAKIAALKAKNAALKAKIAALKG [Core_NINI-es_EKKK]
interaction score (Core_NINI-es_KEEE): 2.35

DENAALEAKIAALKAENAALEAKIAALKG [Core_NINI-es_EKEK]
interaction score (Core_NINI-es_KEKE): 1.98

DEIAALEAENAALEAENAALEAKIAALKG [Core_INNI-es_EEEK]
interaction score (Core_INNI-es_KKKE): 2.15

DEIAALEAKIAALKAKIAALKAKIAALKG [Core_IIII-es_EKKK]
interaction score (Core_IIII-es_KEEE): 1.95

DKNSQLKQENSELEQEISELEWEISQLEQ [O1-bS]
interaction score (O10-bS): -1.15
interaction score (O16-bS): -1.87
interaction score (O13-bS): -1.7
interaction score (O6-bS): -0.716
interaction score (O5-bS): -2
interaction score (O7-bS): -1.5
interaction score (O1-bS): -1.37
interaction score (O9-bS): -1.23
interaction score (O2-bS): 2.08
interaction score (O11-bS): -0.763
interaction score (O15-bS): -0.914
interaction score (O14-bS): -0.387
interaction score (O3-bS): -0.395
interaction score (O12-bS): -0.754
interaction score (O8-bS): -0.794
interaction score (O4-bS): -1.85

DEIAALEAKIAALKAEIAALEAKNAALKG [Core_IIIN-es_EKEK]
interaction score (Core_IIIN-es_KEKE): 2.11
